Numbering of substitutions follows the chain as printed. Values joined by “and” are separate entries in the source; they are usually repeats but may differ in a detail not shown here. Equal entries are not always repeated. Non-standard residues stand in square brackets, D forms with d. No end group written: not given here. *: point of attachment. Dnp = O=[N+]([O-])c1ccc(*)c([N+](=O)[O-])c1; 2Abz = Nc1ccccc1C(=O)O
Experiments:
[1] = biological target: T1, Abz-LAETGK(Dnp)-CONH2 (N-terminus assumed; SMILES CC(C)C[C@H](NC(=O)c1ccccc1N)C(=O)N[C@@H](C)C(=O)N[C@@H](CCC(=O)O)C(=O)N[C@H](C(=O)NCC(=O)N[C@@H](CCCCNc1ccc([N+](=O)[O-])cc1[N+](=O)[O-])C(N)=O)[C@@H](C)O); assay: cell-based or functional assay
T1 peptide: [2Abz]LAETGK(Dnp)-NH2

[2] = biological target: T2, Abz-LAETGK(Dnp)-CONH2
T2 chain: LAETGK

[3] = biological target: T3, Abz-LPETGK(Dnp)-CONH2
T3 chain: LPETGK

[4] = biological target: T4, Abz-LPESGK(Dnp)-CONH2 (N-terminus assumed; SMILES CC(C)C[C@H](NC(=O)c1ccccc1N)C(=O)N1CCC[C@H]1C(=O)N[C@@H](CCC(=O)O)C(=O)N[C@@H](CO)C(=O)NCC(=O)N[C@@H](CCCCNc1ccc([N+](=O)[O-])cc1[N+](=O)[O-])C(N)=O); assay: cell-based or functional assay
T4 peptide: [2Abz]LPESGK(Dnp)-NH2

[5] = biological target: T5, Gly-Gly-Gly-COOH
T5 chain: GGG

[6] = biological target: T6, Abz-LPESGK(Dnp)-CONH2
T6 chain: LPESGK

[7] = biological target: T7, Abz-LSETGK(Dnp)-CONH2
T7 chain: LSETGK

[8] = biological target: T8, human fetuin A, endogenous in human plasma, P02765
T8 chain: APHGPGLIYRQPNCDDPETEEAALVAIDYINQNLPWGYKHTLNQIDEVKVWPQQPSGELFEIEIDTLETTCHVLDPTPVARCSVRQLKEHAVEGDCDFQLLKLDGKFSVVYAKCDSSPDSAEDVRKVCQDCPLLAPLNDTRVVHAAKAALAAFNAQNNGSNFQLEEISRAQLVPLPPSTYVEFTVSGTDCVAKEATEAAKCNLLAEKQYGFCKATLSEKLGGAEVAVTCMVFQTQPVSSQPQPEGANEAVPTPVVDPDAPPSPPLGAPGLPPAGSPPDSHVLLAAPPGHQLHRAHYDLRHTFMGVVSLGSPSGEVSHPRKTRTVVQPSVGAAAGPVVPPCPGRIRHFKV

[9] = biological target: T9, Abz-LPEAGK(Dnp)-CONH2
T9 chain: LPEAGK

[10] = biological target: T10, Abz-LPECGK(Dnp)-CONH2
T10 chain: LPECGK

[11] = biological target: T11, eSrtA displayed on ICY200 yeast as a C-terminal Aga2p fusion (Staphylococcus aureus, UniProt Q2FV99 60-206); assay: yeast-displayed eSrtA, 10 µM Btn-LAETGG against 100 nM to 1 mM LPETGG, cell biotinylation by flow cytometry
T11 construct: the whole entry is named here; also called Yeast displaying eSrtA; S. cerevisiae displaying eSrtA; not shown: Aga2p, yeast display anchor
T11 chain: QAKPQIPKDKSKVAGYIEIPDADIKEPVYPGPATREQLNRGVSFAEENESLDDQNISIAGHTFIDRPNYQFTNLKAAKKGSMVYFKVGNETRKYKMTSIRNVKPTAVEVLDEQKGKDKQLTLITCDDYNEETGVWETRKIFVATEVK

[12] = biological target: T12, Alexa Fluor 647-LPESGG
T12 chain: KLPESGG

[13] = biological target: T13, Alexa Fluor 488-LAETGG
T13 chain: KLAETGG

[14] = biological target: T14, Abz-LRETGK(Dnp)-CONH2
T14 chain: LRETGK

B1: eSrtA(2A-3.5) (enzyme)
chain: T11 chain with K103R, V109I, I123F
specificity (relative cat. Efficiency, fold), by the kcat/Km cells LPETG over LAETG [1]: 2.21 fold
Avg KM [2]: 6370 µM
Avg kcat/KM [2]: 180
Km, LxExG [2]: 7160 µM
kcat/Km (Hz/M) [2]: 175 Hz/M
Avg KM [3]: 3750 µM
Avg kcat/KM [3]: 406
Km, LxExG [3]: 4110 µM
Specificity (relative catalytic efficiency, fold), LPETG over LAETG [3]: 2.25 fold
kcat/Km (Hz/M) [3]: 386 Hz/M

B2: evolved sortase A (eSrtA) (enzyme)
chain: T11 chain
specificity (relative cat. Efficiency, fold), by the kcat/Km cells LPETG over LPESG [4]: 10.2 fold
Km [2]: 6070 µM
Km, LxExG [2]: 6160 µM
Rel. Activity (fold below the enzyme's best substrate, LPETG) [2]: 103 fold
kcat/Km [2]: 223 M⁻¹ s⁻¹
kcat/Km (Hz/M) [2]: 221 Hz/M
Km, GGG (uM); with LPETG peptide [5]: 2990 µM
Km,GGG (µM); listed substrate LAETG [5]: 807 µM
Km,GGG (µM); listed substrate LPEAG [5]: 48400 µM
Km,GGG (µM); listed substrate LPECG [5]: 57000 µM
Km,GGG (µM); listed substrate LPESG [5]: 22000 µM
Km,GGG (µM); listed substrate LPETG [5]: 1620 µM
Km,GGG (µM); listed substrate LSETG [5]: 337 µM
Km [6]: 318 µM
Km, LxExG [6]: 672 µM
Rel. Activity (fold below the enzyme's best substrate, LPETG) [6]: 4.9 fold
kcat/Km [6]: 4650 M⁻¹ s⁻¹
kcat/Km (Hz/M) [6]: 2650 Hz/M
Km [7]: 533 µM
kcat/Km [7]: 192 M⁻¹ s⁻¹
conjugation efficiency in human plasma, with supplemental calcium (densitometry) [8]: 0.6% by eSrtA in the presence supplemental calcium
fetuin A conjugation efficiency with 10 mM added CaCl2, against eSrtA(4S-9) [8]: only modest fetuin A conjugation efficiencies (90-fold lower than that of eSrtA(4S-9)) in the presence of 10 mM added CaCl2
processing of fetuin A in human plasma without supplemental calcium [8]: eSrtA showed no processing of fetuin A without supplemental calcium
Km [9]: 83.4 µM
kcat/Km [9]: 8900 M⁻¹ s⁻¹
Km [10]: 72.5 µM
kcat/Km [10]: 48800 M⁻¹ s⁻¹
Km [3]: 230 µM
Km, LxExG [3]: 208 µM
kcat/Km [3]: 23000 M⁻¹ s⁻¹
kcat/Km (Hz/M) [3]: 27100 Hz/M
specificity (relative cat. Efficiency, fold), LPETG over LAETG [3]: 123 fold

LPETGG [non-biotinylated LPETGG peptide]
Ki [11]: < 100 µM

B3: eSrtA(4S-9) (protein)
chain: T11 chain with N39D, S43C, A45V, A59T, F63A, K75R, F85L, I123V, E130F
Km [2]: 387 µM
Rel. Activity (fold below the enzyme's best substrate, LPESG) [2]: 898 fold
kcat/Km [2]: 20.2 M⁻¹ s⁻¹
Avg KM (uM) for GGG; with LPESG (4S) peptide [5]: 69500 µM
Avg KM (uM) for GGG; with LPETG (wt) peptide [5]: 97600 µM
Avg kcat/KM for GGG; with LPESG (4S) peptide [5]: 46.1
Avg kcat/KM for GGG; with LPETG (wt) peptide [5]: 0.587
Km,GGG (µM); listed substrate LPEAG [5]: 41000 µM
Km,GGG (µM); listed substrate LPECG [5]: 55000 µM
Km,GGG (µM); listed substrate LPESG [5]: 69000 µM
Km,GGG (µM); listed substrate LPETG [5]: 98000 µM
Avg KM [6]: 123 µM
Avg kcat/KM [6]: 17600
Km [6]: 113 µM
Specificity, LPESG over LPETG [6]: 25 fold
difference in transpeptidation of LPESG over LPETG [6]: an approximately 40-fold difference in transpeptidation of LPESG (SEQ ID NO: 3) over LPETG (SEQ ID NO: 4) by eSrtA(4S-9)
kcat/Km [6]: 18200 M⁻¹ s⁻¹ and 18000 M⁻¹ s⁻¹
conjugation of fluorophore-peptide to GGG-diblock (gel fluorescence), cognate pair [12]: Significant peptide-diblock conjugation was observed only for cognate pairs of enzyme and substrate, with no detectable off-target substrate conjugation
modification of GGG-PEG-functionalized 96-well plates (fluorescence), cognate pair [12]: Each enzyme exhibited significant modification only on its cognate substrate
conjugation efficiency in human plasma, with supplemental calcium (densitometry) [8]: 1.8% or 57.6% by eSrtA(4S-9) in the absence or presence of supplemental calcium, respectively
conjugation efficiency in human plasma, without supplemental calcium (densitometry) [8]: 1.8% or 57.6% by eSrtA(4S-9) in the absence or presence of supplemental calcium, respectively
labeling of human plasma proteins with Gly-Gly-Gly-Lys(Biotin) [8]: identified a single transpeptidation product (FIG. 21C-D), identified by mass spectrometry and confirmed by Western blot as fetuin A
Km [9]: 154 µM
kcat/Km [9]: 12300 M⁻¹ s⁻¹
Km [10]: 69 µM
kcat/Km [10]: 74000 M⁻¹ s⁻¹
Avg KM [3]: 66.1 µM
Avg kcat/KM [3]: 706
Km [3]: 64.7 µM
Rel. Activity (fold below the enzyme's best substrate, LPESG) [3]: 25 fold
kcat/Km [3]: 720 M⁻¹ s⁻¹
conjugation of fluorophore-peptide to GGG-diblock (gel fluorescence), non-cognate pair [13]: no detectable off-target substrate conjugation
modification of GGG-PEG-functionalized 96-well plates (fluorescence), non-cognate pair: no significant modification [13]: Each enzyme exhibited significant modification only on its cognate substrate

B4: eSrtA(2A-9) (protein)
chain: QAKPQIPKDKSKVAGYIEIPDADIKEPVYPGPATREQLNRGVCFHDENESLDDQNISIAGHTFIDRPNYQFTNLKAAKPGSMVYFKVGNETRIYKMTSIRKVHPNAVEVLDEQEGKDKQLTLVTCDDYNEETGVWESRKIFVATEVK
Avg KM [2]: 265 µM
Avg kcat/KM [2]: 8420
Km [2]: 265 µM
Specificity (relative catalytic efficiency, fold), LAETG over LPETG [2]: 510 fold
kcat/Km [2]: 8420 M⁻¹ s⁻¹
Avg KM (uM) for GGG; with LAETG (2A) peptide [5]: 1480 µM
Avg kcat/KM for GGG; with LAETG (2A) peptide [5]: 1070
Km,GGG (µM); listed substrate LAETG [5]: 1480 µM
Km,GGG (µM); listed substrate LPETG [5]: 585 µM
Km,GGG (µM); listed substrate LRETG [5]: 628 µM
Km,GGG (µM); listed substrate LSETG [5]: 1270 µM
Km [6]: 4800 µM
Rel. Activity (fold below the enzyme's best substrate, LAETG) [6]: 5940 fold
kcat/Km [6]: 1.42 M⁻¹ s⁻¹
conjugation of fluorophore-peptide to GGG-diblock (gel fluorescence), non-cognate pair [12]: no detectable off-target substrate conjugation
modification of GGG-PEG-functionalized 96-well plates (fluorescence), non-cognate pair: no significant modification [12]: Each enzyme exhibited significant modification only on its cognate substrate
Km [7]: 331 µM
kcat/Km [7]: 355 M⁻¹ s⁻¹
Km [14]: 1070 µM
kcat/Km [14]: 233 M⁻¹ s⁻¹
Avg KM [3]: 1270 µM
Avg kcat/KM [3]: 16.5
Km [3]: 1270 µM
Rel. Activity (fold below the enzyme's best substrate, LAETG) [3]: 510 fold
kcat/Km [3]: 16.5 M⁻¹ s⁻¹
conjugation of fluorophore-peptide to GGG-diblock (gel fluorescence), cognate pair [13]: Significant peptide-diblock conjugation was observed only for cognate pairs of enzyme and substrate, with no detectable off-target substrate conjugation
modification of GGG-PEG-functionalized 96-well plates (fluorescence), cognate pair [13]: Each enzyme exhibited significant modification only on its cognate substrate
